Values quoted from earlier work as cited in paper PMC4117600.
Like-named read-outs stand apart in the source and are kept apart here.

Legend:
CCR4 (Homo sapiens) [1] = molecular target: CCR4 (Homo sapiens) (UniProt P51679)
CCR4 (Homo sapiens) [2] = molecular target: CCR4 (Homo sapiens) (UniProt P51679); remark: listed apart in the source

Sequence of CCR4 (Homo sapiens) (P51679 whole entry): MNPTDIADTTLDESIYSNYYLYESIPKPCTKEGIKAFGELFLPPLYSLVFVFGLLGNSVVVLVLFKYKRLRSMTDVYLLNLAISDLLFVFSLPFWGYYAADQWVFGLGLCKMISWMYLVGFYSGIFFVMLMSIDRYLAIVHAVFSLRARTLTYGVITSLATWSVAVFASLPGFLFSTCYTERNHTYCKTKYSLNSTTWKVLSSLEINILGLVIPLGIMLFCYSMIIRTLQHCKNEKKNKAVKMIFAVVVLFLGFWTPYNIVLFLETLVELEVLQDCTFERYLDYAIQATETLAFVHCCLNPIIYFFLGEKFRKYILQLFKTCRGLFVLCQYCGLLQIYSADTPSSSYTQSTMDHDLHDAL
Sequence of CCL17 (Q92583 24-94): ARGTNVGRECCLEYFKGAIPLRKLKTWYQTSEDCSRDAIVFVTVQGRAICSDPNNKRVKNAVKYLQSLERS
Sequence of CCL22 (O00626 25-93): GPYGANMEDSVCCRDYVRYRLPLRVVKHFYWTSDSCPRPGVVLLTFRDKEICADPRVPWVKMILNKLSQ

CCL17 (from UniProt Q92583)
Kd (CCR4 (Homo sapiens) [1]): 2.1 nM

CCL22 (from UniProt O00626)
Kd (CCR4 (Homo sapiens) [2]): 0.18 nM
